The record followed here is US20220135638A1 (Takeda / Millennium, published 2022).

Common to all, as to test: cell-based or functional assay
Experiment [1] concerns the target human GLP-1R (Genebank Accession No. NM_002062) on hGLP-1R/CRE-luc/CHO-K1 cells (human, UniProt P43220 24-463).
Experiment [2] has as its target T1, human GIPR (Genebank Accession No. U39231) on hGIPR/CRE-LUC/CHO-K1 cells (human), P48546.
T1 chain: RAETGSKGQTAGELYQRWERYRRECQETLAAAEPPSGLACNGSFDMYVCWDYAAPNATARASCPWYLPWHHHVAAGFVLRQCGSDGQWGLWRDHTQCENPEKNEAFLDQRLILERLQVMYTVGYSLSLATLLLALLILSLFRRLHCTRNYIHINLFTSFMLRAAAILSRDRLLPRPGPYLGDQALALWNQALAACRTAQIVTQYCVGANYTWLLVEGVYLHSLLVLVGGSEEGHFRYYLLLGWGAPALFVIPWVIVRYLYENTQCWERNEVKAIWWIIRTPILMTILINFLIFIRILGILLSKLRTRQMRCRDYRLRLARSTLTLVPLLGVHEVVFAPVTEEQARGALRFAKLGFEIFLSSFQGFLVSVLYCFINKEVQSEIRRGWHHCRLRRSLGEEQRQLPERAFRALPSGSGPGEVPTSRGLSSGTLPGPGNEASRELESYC

For experiment [3], the target named is T2, human GLP-1R (Genebank Accession No. NM_002062) on hGLP-1R/CRE-luc/CHO-K1 cells (human), P43220.
T2 chain: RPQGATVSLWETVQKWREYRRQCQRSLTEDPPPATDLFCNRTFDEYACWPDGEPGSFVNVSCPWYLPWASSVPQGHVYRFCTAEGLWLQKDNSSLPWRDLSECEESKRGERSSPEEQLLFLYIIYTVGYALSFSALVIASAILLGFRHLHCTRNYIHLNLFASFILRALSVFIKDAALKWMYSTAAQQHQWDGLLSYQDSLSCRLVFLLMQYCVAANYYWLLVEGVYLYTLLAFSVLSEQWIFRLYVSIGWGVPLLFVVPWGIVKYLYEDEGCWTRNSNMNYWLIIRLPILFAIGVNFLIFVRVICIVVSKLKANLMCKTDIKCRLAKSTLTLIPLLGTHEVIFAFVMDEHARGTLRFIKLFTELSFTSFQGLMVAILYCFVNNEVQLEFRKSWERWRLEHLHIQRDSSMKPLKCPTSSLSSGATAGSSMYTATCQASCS

Square brackets hold non-standard residues; d marks the D form. Primed or numbered codes have the meaning given here. Side chains are listed from the residue outwards. Ends that are not written are not given here. * marks the point of attachment. C16 diacid = O=C(O)CCCCCCCCCCCCCCC(=O)*; Iva = CC[C@](C)(N)C(=O)O; Aib = CC(C)(N)C(=O)O

B1: Compound No. 60 (peptide)
peptide: YXEGTFISDYSIALDRXHQXNFVNWXLAQRPSSGAPPPSX
modifications: MeTyr (N-methyltyrosine) at 1; Aib at 2, 17, 20; Iva at 26; Lys40(Oda-GlyGlyGlyGlyGly); synthesized on Sieber amide resin
Regarding B1, the “hGLP-1R (Reporter gene assay)(EC50)” value in experiment [1] is greater than 1000 nM.
In experiment [2], Y[Aib]EGTFISDYSIALDR[Aib]HQ[Aib]NFVNW[Iva]LAQRPSSGAPPPSK([PEG(2)-C16 diacid]) (ends and bridges not checked) [Compound No. 46] showed a hGIPR (polyclonal) Reporter (EC50) of 0.01 nM. Besides, in experiment [3], the hGLP-1R (Reporter gene assay)(EC50) was greater than 1000 nM.

B2: Compound No. 7 (peptide)
peptide: YXEGTVVSLYSIXLDKQAQXEFVKWLLKGGPSSGAPPPSX
modifications: Aib at 2, 13, 20; Lys40(Heda-Gly-Gly-Gly-Gly-); synthesized on Sieber amide resin
For the molecule B2, in experiment [1], the “hGLP-1R (Reporter gene assay)(EC50)” value is greater than 1000 nM.
